B1: Guanyl-specific ribonuclease T1 wild type, P00651 (protein)
chain: MMYSKLLTLTTLLLPTALALPSLVERACDYTCGSNCYSSSDVSTAQAAGYQLHEDGETVGSNSYPHKYNNYEGFDFSVSSPYYEWPILSSGDVYSGGSPGADRVVFNENNQLAGVITHTGASGNNFVECT
B2: Guanyl-specific ribonuclease Sa wild type, P05798 (protein)
chain: DVSGTVCLSALPPEATDTLNLIASDGPFPYSQDGVVFQNRESVLPTQSYGYYHEYTVITPGARTRGTRRIITGEATQEDYYTGDHYATFSLIDQTC

Settings: Aspergillus oryzae (strain ATCC 42149 / RIB 40); pH 2.7; 25 °C; Urea; CD; glycine 30 mM; reversible: yes (>95%); whole UniProt chain shown

| Protein | denaturant m value | denaturant midpoint (higher = more stable) | unfolding free energy |
| --- | --- | --- | --- |
| B1 | 1.64 kcal/mol/M | 3.75 M | 6.13 kcal/mol |

Same assay, conditions: Aspergillus oryzae (strain ATCC 42149 / RIB 40); pH 2.7; 25 °C; Urea; Fluorescence; glycine 30 mM; transition: 2; reversible: Yes; whole UniProt chain shown

| Protein | denaturant m value | denaturant midpoint (higher = more stable) | unfolding free energy |
| --- | --- | --- | --- |
| B1 | 1.64 kcal/mol/M | 3.75 M | 6.13 kcal/mol |

Same assay, conditions: Aspergillus oryzae (strain ATCC 42149 / RIB 40); pH 7; 25 °C; Urea; CD; MOPS 30 mM; reversible: yes (>95%); whole UniProt chain shown

| Protein | denaturant m value | denaturant midpoint (higher = more stable) | unfolding free energy |
| --- | --- | --- | --- |
| B1 | 1.17 kcal/mol/M | 5.2 M | 6.09 kcal/mol |

Same assay, conditions: Aspergillus oryzae (strain ATCC 42149 / RIB 40); pH 7; 25 °C; Urea; Fluorescence; MOPS 30 mM; transition: 2; reversible: Yes; whole UniProt chain shown

| Protein | denaturant m value | denaturant midpoint (higher = more stable) | unfolding free energy |
| --- | --- | --- | --- |
| B1 | 1.17 kcal/mol/M | 5.2 M | 6.09 kcal/mol |

Same assay, conditions: Aspergillus oryzae (strain ATCC 42149 / RIB 40); pH 7; Thermal; CD; MOPS 30 mM; reversible: yes (>95%); whole UniProt chain shown

| Protein | Tm | unfolding enthalpy (van 't Hoff) |
| --- | --- | --- |
| B1 | 50.8 °C | 96.6 kcal/mol |

Same assay, conditions: Aspergillus oryzae (strain ATCC 42149 / RIB 40); pH 7; Thermal; CD; MOPS 30 mM; transition: 2; reversible: Yes; whole UniProt chain shown

| Protein | Tm | unfolding enthalpy (van 't Hoff) |
| --- | --- | --- |
| B1 | 50.8 °C | 96.6 kcal/mol |

Same assay, conditions: Kitasatospora aureofaciens; pH 2; Thermal; CD; MOPS 30 mM; transition: 2; reversible: Yes; whole UniProt chain shown

| Protein | Tm | unfolding enthalpy (van 't Hoff) |
| --- | --- | --- |
| B2 | 28 °C | 58.8 kcal/mol |

Same assay, conditions: Kitasatospora aureofaciens; pH 7; Thermal; CD; MOPS 30 mM; reversible: yes (>95%); whole UniProt chain shown

| Protein | Tm | unfolding enthalpy (van 't Hoff) |
| --- | --- | --- |
| B2 | 48.4 °C | 92.4 kcal/mol |

Same assay, conditions: Kitasatospora aureofaciens; pH 7; Thermal; CD; MOPS 30 mM; transition: 2; reversible: Yes; whole UniProt chain shown

| Protein | Tm | unfolding enthalpy (van 't Hoff) |
| --- | --- | --- |
| B2 | 48.4 °C | 92.4 kcal/mol |

Reference: FireProtDB (doi:10.1021/bi9815243)
